B1: TRH-DE (Sus scrofa) (protein)
chain: MALDGERGEQEEEKKKKKKKKKRKKKKEEEGAKKSSSPFVATMGENDAALRAGGRGLSDPWADSVGVRPRTTERHITVHKRLVLAFAVSIVALLAVTMLAVLLSLRFDECGASIPPGADGGPAGFPARGGNESLPGSSRRDHHAGGDSSQPGAGREDTPETPSAQPPSEEEQEQWQPWTQLRLSGHLKPLHYNLMLTAFMENFTFSGEVNVEIACRNATRYVVLHASRVAVEKVQVAEDRVAGAVPVAGFFLYPQTQVLVVVLNRTLDAQRNYNLKIIYNALIENELLGFFRSSYVLHGERRFLGVTQFSPTHARKAFPCFDEPIYKATFKISIKHQATYLSLSNMPVETSVFEEDGWVTDHFSQTPLMSTYYLAWAICNFTYRETTTKSGVVVRLYARPDAIRRGSGDYALHITKRLIEFYEDYFKVPYSLPKLDLLAVPKHPYAAMENWGLSIFVEQRILLDPSVSSISYLLDVTMVIVHEICHQWFGDLVTPVWWEDVWLKEGFAHYFEFVGTDYLYPGWNMEKQRFLTDVLHEVMLLDGLASSHPVSQEVLRATDIDRVFDWIAYKKGAALIRMLANFMGHSVFQRGLQDYLTIHKYGNAARNDLWNTLSEALKRNGKYVNIQEVMDQWTLQMGYPVITIFGNTTAENRIIITQQHFIYDISAKAKPHELQNSSYLWQIPLTIVVGNRSHVSSEAIIWVSNKTEHHRITSLNKGSWLLGNINQTGYFRVNYDLRNWRLLIDQLIRNHEVLSVSNRAGLIDDAFSLARAGYLPQNIPLEIIRYLSEEKDFLPWHAASRALYPLDKLLDRMEKYNVFNEYILKQVATTYIKLGWPKNNFNGSLVQASYQHEELRREVIMLACSFGNKHCHQQASTLISDWISSNRNRIPLNVRDIVYCTGVSLLDEDVWEFIWMKFHSTTAISEKKILLEALTCSDDRNLLNRLLNLSLNSEVVLDQDAIDVIIHVARNPHGRDLAWKFFRDKWKILNTRYGEALFMNSKLISGVTEFLNTEGELKELKNFMKSYDGVAAASFSRAVETVEANVRWKMLYQDELFQWLGKALRH
notes: The inventor purified TRH-DE from porcine brain according to purification procedures previously published by Dr. K. Bauer; from tissue; host or cells: porcine brain (TRH-DE); bovine kidney (DPP-IV, gift from Dr. C. H. Williams)

Columns and labels:
Type in all cases: biochemical, porcine
TRH-DE [1] = biological target: T1, TRH-DE (Sus scrofa, UniProt A0A287AP33); assay: discontinuous fluorometric TRH-DE assay with TRHAMC as substrate; settings: measured indirectly, peptide treated as competitive inhibitor of TRHAMC hydrolysis; non-linear regression; mean±S.D.
T1 construct: The inventor purified TRH-DE from porcine brain according to purification procedures previously published by Dr. K. Bauer; from tissue; host or cells: porcine brain (TRH-DE); bovine kidney (DPP-IV, gift from Dr. C. H. Williams)
Description: (§1) The inventor purified TRH-DE from porcine brain according to purification procedures previously published by Dr. K. Bauer, (Max-Planck-Institut, Hannover, Germany) (1). TRH-DE was purified almost 20,000 fold. […] Dipeptidyl peptidase IV (DPP-IV) (EC 3.4.14.5), purified from bovine kidney (7.7 mg ml^−1, specific activity of 17.5 U mg^−1 with Gly-ProAMC as substrate), was obtained as a gilt from Dr. C. H. Williams (Queen's University Belfast, U.K). (DPP-IV was used as the coupling enzyme used in the fluorometric assays).
(§2) One unit (U) of enzyme activity was defined as that amount catalysing the formation of one μmol of product in one minute under the standard conditions employed. […]
(§3) Determination of inhibitor constants for selected TRH-DE substrates—The HPLC assay lacked sufficient sensitivity for determining kinetic constants. […] This assay employs TRHAMC as the substrate and depends on the measurement of the fluorescence of 7-amino-4 methyl coumarin (AMC) produced as follows:
We have shown that the amount of AMC formed under these conditions is a quantitative measure of TRHAMC cleavage (23). Initial rates for the hydrolysis of TRHAMC by TRH-DE were determined in triplicate at five different substrate concentrations both in the absence and presence of at least three concentrations of peptide. […]

TRH-DE [2] = biological target: T1, TRH-DE; assay: HPLC assay of peptide hydrolysis by TRH-DE (Glp production)
How it was run: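 Porcine brain TRH-DE incubated with 1 mM peptide in 20 mM potassium phosphate, pH 7.5, 37 °C: screen with 0.8 μg enzyme for 18 h; rate microassays with 0.8-3.2 μg enzyme for 5 min to 18 h, in triplicate. Reactions stopped with TFA; Glp quantified by C-18 reverse-phase HPLC, UV 206 nm.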

[3] = substrate: Cc1cc(=O)oc2cc(NC(=O)[C@@H]3CCCN3C(=O)[C@H](Cc3c[nH]cn3)NC(=O)[C@@H]3CCC(=O)N3)ccc12; assay: continuous coupled fluorometric TRH-DE assay (TRHAMC substrate, DPP-IV coupling enzyme); settings: other: Michaelis constant of TRHAMC, non-linear regression, pH 7.5, 37.0 °C
Description: as §1, §2
The reaction was monitored continuously by measuring the increase in AMC fluorescence. A linear progress curve with no discernible lag period was observed when the reaction was monitored over a period of 10 minutes. […]
In a preliminary experiment, the peptides were screened for their ability to inhibit TRH-DE activity. The initial rate of TRHAMC hydrolysis by TRH-DE was measured by incubating 5 μM TRHAMC with 1.23 μg DPP-IV and 0.32 μg TRH-DE, both in the absence and presence of each library peptide (1 mM final concentration) under standard assay conditions (23). […]
Fluorescence measurements were made using a Perkin Elmer LS 50B Luminescence Spectrometer fitted with a thernostated cell holder. […]

[4] = substrate: Cc1cc(=O)oc2cc(NC(=O)[C@@H]3CCCN3C(=O)[C@H](Cc3c[nH]cn3)NC(=O)[C@@H]3CCC(=O)N3)ccc12; assay: discontinuous fluorometric TRH-DE assay with TRHAMC as substrate; settings: other: Michaelis constant of TRHAMC measured directly, discontinuous assay; pH 7.5; 37.0 °C
Description: as §1
(§4) One unit (U) of enzyme activity was defined as that amount catalysing the formation of one μmol of product in one minute under the standard conditions employed. All incubations in the assays described below were carried out in 20 mM potassium phosphate buffer, pH 7.5, at 37° C.
as §3
(§5) We have shown that the amount of AMC formed under these conditions is a quantitative measure of TRHAMC cleavage (23). Initial rates for the hydrolysis of TRHAMC by TRH-DE were determined in triplicate at five different substrate concentrations both in the absence and presence of at least three concentrations of peptide. Ki values were obtained by non-linear regression analysis of the data collected. Determined in this way (i.e. by treating the peptide substrates as inhibitors of TRHAMC hydrolysis), these Ki values correspond to the Michaelis constants for those library peptides hydrolysed by TRH-DE (32).

[5] = substrate: NC(=O)[C@@H]1CCCN1C(=O)[C@H](Cc1ccccc1)NC(=O)[C@@H]1CCC(=O)N1; assay: as above; settings: other: measured indirectly, peptide treated as competitive inhibitor of TRHAMC hydrolysis; non-linear regression; mean±S.D.; pH 7.5; 37.0 °C
Description: as §1, §4, §3, §5

[6] = substrate: NC(=O)[C@@H]1CCCN1C(=O)[C@H](Cc1ccc(O)cc1)NC(=O)[C@@H]1CCC(=O)N1; assay: as above; settings: other: measured indirectly, peptide treated as competitive inhibitor of TRHAMC hydrolysis; non-linear regression; mean±S.D.; pH 7.5; 37.0 °C
Description: as §1, §4, §3, §5

| Molecule | Km (TRH-DE [1]) [µM] | Vmax (TRH-DE [2]; estimated from HPLC rates of hydrolysis using Vmax=vo{(Km+[S])/[S]}) | Rate of hydrolysis (TRH-DE [2]; peptide 1 mM, 37° C., Glp production by HPLC, mean±S.D.) | Km [3] [µM] | Km [4] [µM] | Vmax [4] [µmol/min/mg] | Vmax/Km [4] [µL/min/mg] | Km [5] | Vmax [5] [µmol/min/mg] | Vmax/Km [5] [µL/min/mg] | Km [6] | Vmax [6] [µmol/min/mg] | Vmax/Km [6] [µL/min/mg] |
| --- | --- | --- | --- | --- | --- | --- | --- | --- | --- | --- | --- | --- | --- |
| Glp-Thi-ProNH2 | 34 ± 6 | 2.19 ± 0.16 (6) U mg^−1 | 2.12 ± 0.16 (6) U mg^−1 |  |  |  |  |  |  |  |  |  |  |
| B1 |  |  |  | 3.5 ± 0.4 | 3.1 ± 0.5 | 0.11 | 40000 | 55 ± 8 (3) μM | 1.64 | 30000 | 15 ± 3 (4) μM | 0.67 | 50000 |

From patent US7378397B2 (The Provost, Fellows and Scholars of the College of the …, priority 2000, dated 2008)
